Assay [1] relates to IL-11 signalling. Conditions: binds IL-11Rα, engagement of gp130 homodimer fails; cited from earlier work.
In assay [2] the target is T1, IL-11Rα (Homo sapiens, UniProt Q14626).
T1 sequence (Q14626 23-422): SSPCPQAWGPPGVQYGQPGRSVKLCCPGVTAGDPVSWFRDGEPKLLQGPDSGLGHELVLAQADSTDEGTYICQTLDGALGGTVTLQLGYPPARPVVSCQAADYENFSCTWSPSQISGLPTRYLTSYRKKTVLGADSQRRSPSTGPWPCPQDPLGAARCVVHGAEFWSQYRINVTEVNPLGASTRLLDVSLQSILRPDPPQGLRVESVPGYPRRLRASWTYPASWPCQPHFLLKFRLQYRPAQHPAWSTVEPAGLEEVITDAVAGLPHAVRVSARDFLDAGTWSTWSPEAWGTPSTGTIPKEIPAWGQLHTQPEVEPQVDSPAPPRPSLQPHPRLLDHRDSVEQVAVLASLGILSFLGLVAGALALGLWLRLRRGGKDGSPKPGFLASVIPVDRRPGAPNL
Conditions: low affinity binding to IL-11Rα alone; cited from earlier work.

In assay [3] the test system is Primary human hepatic stellate cells (HSCs). Briefly: Increasing concentrations of IL-11 or IL-6, western blot p-LKB1/p-AMPK. Type of assay: cell-based. Particulars: 24 hours; p-LKB1, p-AMPK. Here is the method:
(§1) FIG. 23. Western blot image showing the levels of p-LKB1, LKB1, p-AMPK, AMPK in primary human hepatocytes or primary human hepatic stellate cells that are unstimulated (BL) or stimulated for 24 hours with increasing concentrations (1.25, 2.5, 5, 10 or 20 ng/ml) of IL-11 or IL-6.
(§2) Primary human hepatic stellate cells (HSCs) and human hepatocytes were stimulated for 24 hours with increasing concentrations (1.25-20 ng/ml) of IL-11 or IL-6. […] The effect of IL-11 on these markers is observable at concentrations as low as 1.25 ng/ml in both HSCs and hepatocytes.
Background: Immunoblotting shows a protein as a band on a membrane.

In assay [4] the test system is human hepatocytes. The assay is described as above. Type of assay: cell-based. Conditions: 24 hours; p-LKB1, p-AMPK. As for the experimental part:
as §1, §2

Assay [5] relates to human hepatocytes. Nature of the assay: IL-11 stimulation in the presence of DMSO or U0126, western blot. Particulars: IL-11 treatment 24 hours. It counts as cell-based. As for the experimental part:
FIG. 22. Western blot image showing the levels of p-ERK, ERK, p-P90RSK, P90RSK, p-LKB1, LKB1, p-AMPK, AMPK, p-mTOR, mTOR, p-p70S6K, p70S6K, p-S6RP, S6RP in primary human hepatocytes that are unstimulated (BL+DMSO) or stimulated for 24 hours with IL11 in the presence DMSO or U0126 (10 μM).
(§3) Primary human hepatic stellate cells and human hepatocytes were stimulated for 24 hours with IL-11 in the presence DMSO or U0126. As discussed in Example 4.4, the inventors observed that IL-11 treatment stimulates p-mTOR, p-70S6K and p-S6RP. In line with the inventors' hypothesis, administration of U0126 to IL-11-stimulated cells prevents ERK-mediated inactivation of LKB1/AMPK that stops IL11-induced mTORC1/P70S6K activation (FIG. 21 and FIG. 22, respectively).

In assay [6] the test system is human hepatocytes. Nature of the assay: IL-11 stimulation of cells overexpressing wild-type LKB1, western blot. It counts as cell-based. Conditions: IL11 10 ng/ml, 2 hours. Here is the method: (§4) FIG. 17. Human hepatic stellate cells (17A) and hepatocytes (17B) were infected with AAV8 encoding human LKB1 (multiplicity of infection=20) for 24 hours and then stimulated with IL11 (10 ng/ml) for 2 hours. Cell lysates were immunoblotted for the proteins shown.
(§5) Human hepatic stellate cells (FIG. 17A) and human hepatocytes (FIG. 17B) were engineered to overexpress the wild-type LKB1 and a double mutant S325A, S428A (DM-LKB1). FIGS. 17A and 17B confirm that stimulation with IL-11 induces phosphorylation at […] in the WT LKB1 cells. As expected, phosphorylation is not observed in the double mutant LKB1 cells.

Assay [7] deals with Human hepatic stellate cells. Described as above. Conditions: IL11 10 ng/ml, 2 hours. Type of assay: cell-based. Here is the method: as §4, §5
Assay [8] deals with Primary human hepatic stellate cells. Briefly: IL-11 stimulation in the presence of DMSO or U0126, western blot. It counts as cell-based. Conditions: IL-11 treatment 24 hours. Here is the method:
FIG. 21. Western blot image showing the levels of p-ERK, ERK, p-P90RSK, P90RSK, p-LKB1, LKB1, p-AMPK, AMPK, p-mTOR, mTOR, p-p70S6K, p70S6K, p-S6RP, S6RP, SMA, and GAPDH in primary human hepatic stellate cells that are unstimulated (BL+DMSO) or stimulated for 24 hours with IL11 in the presence DMSO or U0126 (10 μM).
as §3

Assay [9] concerns A549 cells. Nature of the assay: IL-11 stimulation of A549 cells overexpressing human LKB1, western blot. Particulars: IL11 10 ng/ml; AAV8 human LKB1. It counts as cell-based. Here is the method:
FIG. 16. IL-11 stimulates ERK-mediated phosphorylation of LKB1 serine 325(S325) and P90RSK-mediated phosphorylation of LKB1 serine 428 (S428) with subsequent inactivation of AMPK and activation of mTOR, P70RSK and S6RP. (16A) A549 cells were infected with AAV8 encoding human LKB1 (multiplicity of infection=20) for 24 hours and then stimulated with IL11 (10 ng/ml) for the indicated times (15 minutes, 2 hours, 4 hours, 6 hours, or 24 hours). Cell lysates were immunoblotted for the proteins shown. (16B) Schematic of activation of ERK (directly) and P90RSK (indirectly) by IL-11-mediated signalling and downstream effects on hallmarks of ageing. P or p; phosphorylated amino acid.
To determine the mechanism through which IL-11 stimulates phosphorylation of LKB1, A549 cells were engineered to overexpress human LKB1 (AA8-LKB1 in FIG. 16A) and treated with IL-11.

Assay [10] deals with Primary human cardiac fibroblasts. Briefly: IL-11 stimulation time course, western blot. Type of assay: cell-based. Particulars: IL-11 10 ng/ml, 15 mins, 2, 4, 6 or 24 hours. As for the experimental part:
FIG. 15. Western blot image showing the levels of p-LKB1, LKB1, p-mTOR, mTOR in primary human cardiac fibroblasts that are stimulated with IL11 (10 ng/ml), for 15 minutes, 2 hours, 4 hours, 6 hours, or 24 hours.
Primary human cardiac fibroblasts were stimulated with IL-11 (10 ng/ml), for 15 mins, 2, 4, 6, or 24 hours and the levels of phosphorylated LKB1 (p-LKB1), LKB1, phosphorylated mTOR (p-mTOR) and mTOR were measured by western blot.

In assay [11] the target is T2, Mouse IL-11 protein in tissue lysates of C57Bl/6J mice (mouse, UniProt P47873 22-199, limits assumed).
T2 sequence (looked up): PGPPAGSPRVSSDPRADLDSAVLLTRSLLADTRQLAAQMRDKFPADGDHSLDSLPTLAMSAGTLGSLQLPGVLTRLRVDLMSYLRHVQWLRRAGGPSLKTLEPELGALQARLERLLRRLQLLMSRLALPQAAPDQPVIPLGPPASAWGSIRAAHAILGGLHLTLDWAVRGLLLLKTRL
Briefly: western blot of mouse liver lysates (SDS-PAGE, PVDF), X203 as primary antibody, anti-mouse HRP and ECL detection. Here is the method:
Briefly, livers were harvested from mice and homogenized in radioimmunoprecipitation assay (RIPA) lysis and Extraction Buffer (ThermoFisher Scientific) containing protease and phosphatase inhibitors (Roche), followed by centrifugation to clear the lysate. Protein concentrations were determined by Bradford assay (Bio-Rad). Equal amounts of protein lysates were separated by SDS-PAGE, transferred to PVDF membranes, blocked for 1 h with 3% BSA, and incubated overnight with X203 (1:2000) or anti-GAPDH (1:1000, CST). Protein bands were visualized using the ECL detection system (Pierce) with the appropriate secondary antibodies: anti-mouse HRP and anti-rabbit HRP (1:5000, CST). […]

Consider 3 molecules from patent US20230399393A1, “METHODS TO EXTEND HEALTH-SPAN AND TREAT AGE-RELATED DISEASES” (National University of Singapore, priority 2020, published 2023).

B1: W147A: IL-11 antagonist in which amino acid 147 is mutated from a tryptophan to an alanine (protein, UniProt P20809 22-199, looked up, variant W147A)
Interleukin-11: PGPPPGPPRVSPDPRAELDSTVLLTRSLLADTRQLAAQLRDKFPADGDHNLDSLPTLAMSAGALGALQLPGVLTRLRADLLSYLRHVQWLRRAGGSSLKTLEPELGTLQARLDRLLRRLQLLMSRLALPQPPPDPPAPPLAPPSSAAGGIRAAHAILGGLHLTLDWAVRGLLLLKTRL
Turning to B1, the “blockade of IL-11 signalling” value in [1] was “efficient blockade”.

B2: IL-11: Interleukin 11, pleiotropic cytokine of the IL-6 family, used to stimulate cells (protein)
chain: T2 sequence (looked up)
On to B2, for which the equilibrium dissociation constant (Kd) in assay [2] is roughly 22 nM. The “lowest concentration at which the effect on these markers is observable” value in [3] and in assay [4] was 1.25 ng/mL in each case. Besides, the “p-mTOR, p-70S6K and p-S6RP” value in assay [5] and in assay [8] was “stimulates” throughout. Besides, the “phosphorylation at S428 and S325 in the WT LKB1 cells” value in [6] and in assay [7] was “induces” each time. In assay [9], the “ERK-mediated phosphorylation of LKB1 Serine 325 (S325) and P90RSK-mediated phosphorylation of LKB1 serine 428 (S428)” value is “stimulates”. Also, in assay [10], the “level of phosphorylated LKB1 and phosphorylated mTOR” value is “increases”.

B3: X203, mouse anti-mouse IL-11 IgG (anti-IL-11 antagonist antibody) (antibody, V domains shown)
VH: EVQLQQSGPELVKPGASVKIPCKASGYTFTDYNMDWVKQSHGKSLEWIGDINPHNGGPIYNQKFTGKATLTVDKSSSTAYMELRSLTSEDTAVYYCARGELGHWYFDVWGTGTTVTVSS
VL: DIVLTQSPASLAVSLGQRATISCRASKSVSTSGYSYIHWYQQKPGQPPKLLIYLASNLDSGVPARFSGSGSGTDFTLNIHPVEEEDAATYYCQHSRDLPPTFGGGTKLEIK
notes: also called Enx203; anti-IL11 (X203)
Consider B3, for which the binding result in assay [11] is listed as “binds”.

In general, Kd refers to the free concentration of one partner at which half of the binding sites on the other are occupied at equilibrium, for simple one-to-one binding.
